According to the supplement of paper PMC9112550, “Optimization of the antimicrobial peptide Bac7 by deep mutational scanning” (BMC Biology, 2022):

System: Escherichia coli TOP10
Assay: shrunken log2 fold change of peptide-encoding DNA abundance (4.5 h post-induction vs induction); higher = less antimicrobial activity (less host growth inhibition)
Settings: time post-induction: 4.5 h; library: site-saturation at positions 5, 18, 19, 20
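Also: peptides expressed intracellularly from a pBAD plasmid library in pooled LB shake-flask culture, induced with 0.3% L-arabinose, DNA abundance read by NGS, three biological replicates, DESeq2 with apeglm shrinkage.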

Sequence	shrunken log2 fold change
RRIRDRPPRLPRPRPRPFWEPRP	0.272
RRIRCRPPRLPRPRPRPTFMPRP	-0.513
RRIRDRPPRLPRPRPRPENYPRP	0.0528
RRIRMRPPRLPRPRPRPKRWPRP	1.51
RRIRWRPPRLPRPRPRPWTGPRP	-0.0518
RRIRWRPPRLPRPRPRPHQTPRP	0.0649
RRIRKRPPRLPRPRPRPESEPRP	2.93
RRIRARPPRLPRPRPRPLESPRP	0.486
RRIRHRPPRLPRPRPRPEMKPRP	-0.0143
RRIRLRPPRLPRPRPRPYNTPRP	-0.806
RRIRFRPPRLPRPRPRPHLRPRP	-0.19
RRIRFRPPRLPRPRPRPGTCPRP	-0.161
RRIRSRPPRLPRPRPRPSHVPRP	-0.3
RRIRPRPPRLPRPRPRPCVRPRP	0.14
RRIRMRPPRLPRPRPRPVRKPRP	0.136
RRIRSRPPRLPRPRPRPEYWPRP	0.191
RRIRKRPPRLPRPRPRPRMCPRP	-0.211
RRIRLRPPRLPRPRPRPDEEPRP	0.138
RRIRFRPPRLPRPRPRPLKSPRP	-0.307
RRIRVRPPRLPRPRPRPQDMPRP	-0.736
RRIRQRPPRLPRPRPRPTWRPRP	0.345
RRIRHRPPRLPRPRPRPGEFPRP	-0.00759
RRIRSRPPRLPRPRPRPRWYPRP	-0.402
RRIRGRPPRLPRPRPRPPCNPRP	0.489
RRIRERPPRLPRPRPRPHHMPRP	-0.381

Sequence	shrunken log2 fold change
RRIRKRPPRLPRPRPRPLDLPRP	-0.203
RRIRSRPPRLPRPRPRPCMSPRP	-0.348
RRIRERPPRLPRPRPRPGCEPRP	-0.00695
RRIRRRPPRLPRPRPRPKYQPRP	-0.017
RRIRARPPRLPRPRPRPPFPPRP	0.625
RRIRKRPPRLPRPRPRPKEKPRP	0.0508
RRIRFRPPRLPRPRPRPTAMPRP	-0.105
RRIRGRPPRLPRPRPRPMKHPRP	0.0417
RRIRNRPPRLPRPRPRPDQFPRP	-0.0466
RRIRGRPPRLPRPRPRPQGLPRP	0.335
RRIRCRPPRLPRPRPRPKYNPRP	-0.696
RRIRSRPPRLPRPRPRPSASPRP	0.0953
RRIRFRPPRLPRPRPRPAFVPRP	-0.028
RRIRQRPPRLPRPRPRPQKEPRP	-0.00507
RRIRGRPPRLPRPRPRPEEDPRP	-0.0499
RRIRPRPPRLPRPRPRPKYWPRP	-0.127
RRIRPRPPRLPRPRPRPMQVPRP	-0.012
RRIRWRPPRLPRPRPRPAEHPRP	-0.0393
RRIRLRPPRLPRPRPRPRPQPRP	0.398
RRIRKRPPRLPRPRPRPRQVPRP	0.029
RRIRKRPPRLPRPRPRPFYNPRP	-0.695
RRIRMRPPRLPRPRPRPFQPPRP	0.0604
RRIRQRPPRLPRPRPRPQWSPRP	0.282
RRIRHRPPRLPRPRPRPSQSPRP	-0.22
RRIRERPPRLPRPRPRPLVGPRP	-0.198

Sequence	shrunken log2 fold change
RRIRPRPPRLPRPRPRPDMWPRP	-0.103
RRIRGRPPRLPRPRPRPSKWPRP	-0.158
RRIRQRPPRLPRPRPRPFYQPRP	-0.104
RRIRFRPPRLPRPRPRPNAMPRP	-0.191
RRIRYRPPRLPRPRPRPPDCPRP	-0.00396
RRIRLRPPRLPRPRPRPDVEPRP	-0.0825
RRIRMRPPRLPRPRPRPAGIPRP	-0.000742
RRIRLRPPRLPRPRPRPIQQPRP	-0.0102
RRIRPRPPRLPRPRPRPTSAPRP	0.156
RRIRLRPPRLPRPRPRPVNIPRP	-0.163
RRIRMRPPRLPRPRPRPSSFPRP	-0.0557
RRIRCRPPRLPRPRPRPRWEPRP	0.342
RRIRDRPPRLPRPRPRPHFDPRP	0.141
RRIRFRPPRLPRPRPRPEKKPRP	0.0265
RRIRFRPPRLPRPRPRPTSKPRP	-0.191
RRIRGRPPRLPRPRPRPYDKPRP	-0.147
RRIRMRPPRLPRPRPRPFRYPRP	0.0191
RRIRMRPPRLPRPRPRPSFLPRP	-0.121
RRIRIRPPRLPRPRPRPFQSPRP	-0.469
RRIRFRPPRLPRPRPRPNMFPRP	-0.259
RRIRLRPPRLPRPRPRPSLDPRP	-0.142
RRIRKRPPRLPRPRPRPMNLPRP	-0.223
RRIRRRPPRLPRPRPRPQYHPRP	-0.145
RRIRARPPRLPRPRPRPFQSPRP	0.105
RRIRMRPPRLPRPRPRPSWRPRP	0.194
